The nanobody polyreactivity screen of Harvey et al. (2022)

Test: yeast display, Sf9 membrane polyspecificity reagent, FACS + sequencing; frameworks hold sequencing errors
Outline: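 Galactose induction of a Saccharomyces cerevisiae BJ5465 synthetic nanobody display library ran 36–48 hours. The cells were then stained for 1 hour at 4 °C with 10% biotinylated, detergent-solubilized Sf9 membrane reagent, pulled down on streptavidin microbeads and FACS-sorted into low and high (top ~1%) gates on expression and reagent-binding fluorescence. Labels for polyreactivity follow the gate of origin.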

QVQLVESGGGLVQAGGSLRLSCAASGIIFPVYAMGWYRQAPGKERELVATIDSGGGTYYADSVKGRFTISRDNAKNTVYLQMNSLKPEDTAVYYCAADLWVGLVSLWDGYVEYDYWGQGTQVTVSS
polyreactivity (PSR sort gate): low polyreactivity

QVQLVESGGGLVQAGGSLRLSSAASGFTYYFYAMGWYRQAPGKERELVAGISTSGTSTYYADSVKGRFTISRDNAKNTVYFQMNRLKPEDTAVSYCAKRGDAIVPTSSKGNYWGQGTQVTVSS
polyreactivity (PSR sort gate): low polyreactivity

QVQLVESGGGLVQAGGSLRLSCAASGRIIYKNAMGWYRQAPGKERELVAAITSSGGSTYYADSVKGRFTISRDNAKNTVYLQMYSLKPEDTAVYYCATDWPHWRKVYWFDYWGQGTQVTVSS
polyreactivity (PSR sort gate): low polyreactivity

QVQLEESGGGIVQAGGSLRLSCAASGGIFGTYAMGWYRQAPRKERELVASISSDTSTTYADSVKGRFTISRDNAKNTVYLQMNSLKAEDTAVYYCAAGSDYDDDYWGQGTQVTVSS
polyreactivity (PSR sort gate): high polyreactivity

QVQLVESGGGLVQAGGSLRLSCAASGSTFRYYAMGWYRQAPGKERELVAAISSSGGSTYYADSVKGRFTISRDNAKNTVYLQLNSLKPEDTAVYYCNRGVVYRTGRFDYWGQVTQVTVSS
polyreactivity (PSR sort gate): high polyreactivity

QVQLVESGGGLVQAGGILRLSCAASGFTFDFNAMGWYRQAPGKERELVAAISSGASTNYADSVKGRYTISRDNAKNTVYLQMNRVIPLDSEVYYCAVYFYGSSTRSYQARFDYWGQGTQVTVSS
polyreactivity (PSR sort gate): high polyreactivity

QVQLVESGGGLVQAGGSLRLSCAASGSTFVRYAKGWYRQAPGKETELVAAISYRGGSTYYADSVKGRFTISRDNAKNTVYLQMNSLKPEDTAVYYCAAESRHVEGEYWGQGTQVTVSS
polyreactivity (PSR sort gate): high polyreactivity

QVQLVESGGGLVQAGGSLRLSCAASGFIFVKYVMGWYRQAPGKERELVATITNGVSTNYADSVKGRFTISRDNAKNTVYLQMNSLKPEDTAVYYCNTGSNAWYFSGDYWGQGTQVTVSS
polyreactivity (PSR sort gate): low polyreactivity

QVQLVESGGGLVQAGGSLRLSCAASGRTFFYNAMAWYRQAPGKERESTYYADSVKGRFTISRDNAKNTVYLQMNSLIPEDTAVSYCAAGTAYVAYEGDKGDYCGQGTQVTVSS
polyreactivity (PSR sort gate): low polyreactivity

QVQLVESGGGLVQAGGSLRLSCADSGFTFSWYTMGWYRQAPGKERELVAALTVSGGSTYYADSVKGRFTISRDNAKNTVYLQMNSLKPEDTAVYYCNAQDPFTYYSSSPTYDYWGQGTQVTVSS
polyreactivity (PSR sort gate): low polyreactivity

QVQLVESGGGLVQEGGSLRLSCAASGRTFAHYAMGWYKQAPGKERELVAAISWSGGSTYYADSVKGRFTISRDNPKNTVYLQMNILKPEDTGVYYCNTLGGTEYGYWGPGTQVTVSS
polyreactivity (PSR sort gate): high polyreactivity

QVQLVESGGGLVQAGGSLRLSCPASGGNFPFNGMGWSRQAPGKERELVAAISSGGRTYYADSVKGRFTISRDNAKNTVYLQMNSLKPEDTAVYYCAARTSRYYYYPYAFYWGQGTQVTVSS
polyreactivity (PSR sort gate): high polyreactivity

QVHLVESRGGLLQAGGSLRLSCAASVYIFYYYAMGWYRQAPGKEREFVAAITSGDSTYADSVKGRFTISRDNAKNTVYLQMYSLKPEDTAVYYCAAESYFFSPRTREKFDSWGQGTQVTVSS
polyreactivity (PSR sort gate): low polyreactivity

QDHLVESGGGLVEARGSLRLSCAASGFIFRGYAMGWYRQAPGKERELVAAINSGGSTNYADSVKGRFTISRDNAKNTVYLQMNSLKPEDSAVYYCAARWRSWRYKDDYWGQGSQVTVSS
polyreactivity (PSR sort gate): high polyreactivity

QVQLVESGGGLDQAGGSLRLSCAAYGSIFYGYAMGWYRTAPGKERELVAAITSGGSTYYADSVKGRFTISRDNAKNTVYLQMNSLKPEDTAVYYCAATFCTWYSWYDYWGQGTQVTVSS
polyreactivity (PSR sort gate): high polyreactivity

QVQLVESGGGLVQAGGSLRLSCAASGGTFSYYAMGWYRQAPGKGELVAAISSGGSTNYADSVKGRFTISRDNAKNTVYLQMNSLKPEDTAVYYCAARYRFWGPYNYWGQGTQVTVSS
polyreactivity (PSR sort gate): high polyreactivity

QVQLVESGGGVVQAGGRLRLSCAASGGIYRYYAMGWYRQAPGKERELVAVITKSGGDTYYADSVKGRFTISRDNAKNTVYLQMNSLKPEDTAVYYCAAVYGYYTYWIAGFTWAGDYWGQGTQVTVSS
polyreactivity (PSR sort gate): low polyreactivity

QVQLVESGGGLVQAGGSLRLSCAASGSTFDGNAMGWYRQAPGKERELVAAITYTTSSTYYADSVKGRFTISRDNAKNTVYLQMTSLKPEDTAVYYWGQGTQVTVSS
polyreactivity (PSR sort gate): low polyreactivity

QVQLVESGGGLVQAGGILRLSCAASGFTFSWYAMGWYRQAPGKERELVAAINADGGTTYYADSVKGRFTISRDNAKNTVYLQMNSLKPEDTAVYYCAAELSVDKYDYWGQGTQVTVSS
polyreactivity (PSR sort gate): low polyreactivity

QVQLVESGGGLDQAGGSLRLSSAASGSIFVDNAMGWYRQAPGKERELVAAISRRGGSTYYADSVKGRFTISRDNAKNTVYLQMNSLKPEDTAVYYCNKKNIQFYQGASDYWGQGTQVTVSS
polyreactivity (PSR sort gate): high polyreactivity

QVQLVESGGGLVQAGGSLRLSCAASGRIFHVYAMGWYRQAPGKERELVAAISSGDRTYYADSVKGRFIISRDNAKNTVYLQMNSLKPEDTAVYYCAATAQYYHYHLAKYDYWGQGTQVTVSS
polyreactivity (PSR sort gate): low polyreactivity

QVHLVESGGGLVQAGGSHRLSCAASGSISFIYAMGWYIQAPGKERELVAAITSSGGSTYYADSVKGRFTISRDNAQNTVYLQMNSLKPDDTAVYYCAAERWTSRHYSGNDYWGQGTQVTVSS
polyreactivity (PSR sort gate): low polyreactivity

QVQLVESGRGLVQAGGSLRLSCAASGIIFEYYTMGWSRPAPGKERELVASITYDGDSTYYADSVKGRFTISRDNAKNTVYLQMNSLKPEDTAVYYCAAEYYYVYSSFGHFYWGQGTQVTVSS
polyreactivity (PSR sort gate): low polyreactivity

QVQLVESGGGLVQAGGSLRLTCAASGSTFSKNAMGWYRQATGNERELVASISSSVGSTYYSDSVKGRFTISRDNAKNTVYLQMNSLKPEDTAVYYCATRRGRGYYYWGQGTQVTVSS
polyreactivity (PSR sort gate): high polyreactivity

QVQLVESGGGLVQARGSLRLSCAASGSTFVTYAMGWYRQAPGKERELVAAITWSGGGTYYADSVKGRFTISRDNAKNTVYLQMNSLKPEDTAVYYCNRPAAVGDEDYWGQGTQVTVSS
polyreactivity (PSR sort gate): low polyreactivity

QVQLVESGGGLVQAGCSLRLSCAASGFTFFKYAMGWYRQAPGTERELVAAITRNGGRTYYADSVKGRFTISRDNAKNTVYLQMNSLKPEDTAVYYCAARYANLRNGYRYDYWGQGTQVTVSS
polyreactivity (PSR sort gate): high polyreactivity

QVQLVESGGGLVQAGGSLRLSCAASGFILTQYAMGWYREAPGKERELVASISSSGSTYYADSVKGRFTISRDNAKNTVYLQMNSLKPEDTGVYYCATPGPAVHGTRGEYDYWGQGTQVTVSS
polyreactivity (PSR sort gate): high polyreactivity

QVQLVESGGGLVQAGGSLRLSCAASGSTSVTNAMGWYRQAPGKEREFVATINYSGTSTYYADSVKGRFTISRDNAKNTVYLQMNSLKPEDTAVYYCNAHDFGFYRFSLPGYDYWGQGTQVTVSS
polyreactivity (PSR sort gate): low polyreactivity

QVQLVESGGGLVQAGGSLRLSCAASGFIFYYAMGWYRQAPVKERELVAAISRGGSTNYADSVKGRFTISRDNAKNTVYLQMNSLKPEDTAVYYCNARVYSSRARWGTYDYWGQGTQVTVSS
polyreactivity (PSR sort gate): high polyreactivity

QVQLVESGGGLVQAGGSLRLSCAASGFIFRYNTMGWYRQAPGKERELVAAISVSGARTYYADSVKGRFTISRDNAKNTVYLQMNSLKPEDTAVYYCNRRYPFYSRYNNDYWGQGTQVTVSS
polyreactivity (PSR sort gate): high polyreactivity

QVQLVESGGGLVQAGGSLRLSCAASGRIFTGYAMGWYRQAPGKEREFVAAITGRGGSTYYADSVKGRFTISRDNAKNTVYLLMNSLKPEDTAVYYCNALPRSPWYYRGDYWGQGTQVTVSS
polyreactivity (PSR sort gate): high polyreactivity

QVHLVESGGGLVQAGGSLRLSCAASGSTFYLYAMGWYRQATGKERELDASISRSGITTYSDSVKGRFTITRDNAKNNVYLQLNSRNPEDTADYYCAVRYYSASYWYGYDYWGLGTQVTVSS
polyreactivity (PSR sort gate): high polyreactivity

QVQLVESGGGLVQAGGSLRLSCAASGSILGYYAMGWYRQAPGKERELVAITSGDSTYYADSVKGRFTISRDNAKNTVYLQMNSLKPEDTAVYYCNARYSWKYDYWGQGTQVTVSS
polyreactivity (PSR sort gate): high polyreactivity

QVQLVESGGGLVQAGGSLRLSCAASGSIFAWNAMGWYRQAPGKERELVAAIRWSSGRTNYADSVKGRFTISRDNAKNTVYLQMNSLKPEDTAVYYCNARVVNYFRPRTGAREYDYWGQGTQVTVSS
polyreactivity (PSR sort gate): high polyreactivity

QDQLVESGGGLVQAGGSLRLSCAASGYTFFFYVMGWSRQAAGKERELVAAITFSVGSTYYADSVKRRFTISRDNAKNTVYLQMNSLKPEDTAVYYCAARGALYSHSYGSARYYYWGQGTQVTVSS
polyreactivity (PSR sort gate): high polyreactivity

QVQLVESGGGLVQAGGSLRLSCAASGRIFVKYAMGWYRQAPGKERELVAGISRSVGSTYYADSVKGRFTISRDNAKNTVYLQMNSLKPEDTAVYYCATRQKRVGYYYWGQGTQVTVSS
polyreactivity (PSR sort gate): high polyreactivity

QVQLVESGGGLVQAGGSLRLSCAASGFTFYPYAMGWYRQAPGKERELVAAISNGDSTHYADSVKGRFTISRDNAKNTVYLQMNSLKPEDTAVYYCAAVRGYPSRITSYVYTYGYWGQGTQVTVSS
polyreactivity (PSR sort gate): low polyreactivity

QVQLVESGAGLVQAGGSLRFSCAASGFIFVDNTMGWSSQAPGKEMELVAAISYSAGSTYYADSVKGRFTISRDNAMNTVYLQMNCLKPEDTAVYDCAAQHSWVTSYLYSYDYWGQGTQVTVSS
polyreactivity (PSR sort gate): low polyreactivity

QVQLVESGGGLVQAGGSLRLSCAASGRIFGENAMGGYRQAPGKEREFVAVISISDASTYYADSVKGRFTISRDNAKNTVYLQMNSLKPEDTAVYYCAADLTDFLYVASDYWGQGTQVTVSS
polyreactivity (PSR sort gate): low polyreactivity

QVQLVESVGGLVQAGGSLRLSCAASGFIFRGYALGWYRQARGKEWELVAAMNAGDSTNYADSVKGRFTISRDTAKNTVYLQMNSLKPEETAVYYCAASIYAALNGGPGYDYWGQGTQVTVSS
polyreactivity (PSR sort gate): low polyreactivity

QVQLVESGGGLVQAGGSLRLSCAASGRTFGSNAMGWYRQAPGKERELVAAISVRGGRTYSADSVKGRFTISRDNAKNTVSLQMNSLKPEDTAVYYCAADPYPISKYWFYHAVDYDSWGQGTQVTVSS
polyreactivity (PSR sort gate): high polyreactivity

QVQLVESGGGLVQAGGSLRLSCAASGSTLWYNAMGWYRQAPGKERELVATITAGGGSTYYADSVKGRFTISRDNAKNTVYLQMNSLKPEDTAVYYCATPVASVTGYDYWGQGTQVTVSS
polyreactivity (PSR sort gate): low polyreactivity

QVQLVESGGGLVQAGGSLRLSCAASGNILAWYAMGWYRQAPGKERELVADISSRGGSTYYADSVKRRFTISRDNAKYTVYLQMKSLKPEDTAVYYCAAVWYWNQDYEYWGQGTQVTVSS
polyreactivity (PSR sort gate): low polyreactivity
